± gives the uncertainty stated by the source.
Experiment: protein stability index of a GFP-peptide fusion (yeast GPS) (PSI 1-4); higher = more stable; sorted into four equal gates, so the index is relative within each strain
Method in brief: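 Mid-log yeast cultures in leucine-free medium, carrying a pooled plasmid library, were sorted into four equal gates by their GFP/Cherry fluorescence ratio. Each plasmid expressed Cherry along with GFP fused upstream of a tiled 17-residue yeast protein peptide. Plasmids recovered from each gate were PCR-amplified and Illumina-sequenced, with reads assigned to strains by barcodes. The protein stability index was obtained by summing each gate's read frequency weighted by its gate number.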

Sequence	protein stability index (doa10∆)	protein stability index (pdr5∆)	protein stability index (san1∆)	protein stability index (ubr1∆)
IFSYGPHIQKMLSILEI [POP6]	2.27 ± 0.12	1.93 ± 0.067	2.56 ± 0.15	2.24 ± 0.073
IFSYLQFTSSLFKALKV [RGR1]	1.61 ± 0.059	1.3 ± 0.052	1.12 ± 0.11	1.05 ± 0.056
IFTDFLPSSNGSSRIIA [RRP42]	3.15 ± 0.085	2.89 ± 0.084	3.07 ± 0.073	2.8 ± 0.069
IGEFNVSMYQNSSTSST [YDL088C/ASM4]	3.61 ± 0.28	1.97 ± 0.13		2.17 ± 0.098
IGFTIKEYENHSGELMR [SMC1]	2.53 ± 0.14	2.79 ± 0.059	2.06 ± 0.12	2.86 ± 0.14
IGGMRVDENGDPIWQHQ [RET1]	3.13 ± 0.2	3.38 ± 0.19	2.88 ± 0.26	3.42 ± 0.092
IGHLIKTRFKGSQFIVV [SMC2]	3.5 ± 0.12	3.05 ± 0.084	3.38 ± 0.087	3.14 ± 0.08
IGQIIFSVRTKDSNKDV [RPL10]	2.18 ± 0.05	2.49 ± 0.048	2.21 ± 0.065	2.79 ± 0.051
IHEIRLNTLNNVVEIWV [SIR3]	1.38 ± 0.051	1.44 ± 0.046	1.46 ± 0.086	1.55 ± 0.038
IHIQETQEFSKNYTTET [SIR3]	3.39 ± 0.1	3.15 ± 0.11	3.4 ± 0.16	3.31 ± 0.069
IHLNELLTNDESAFENL [SNF12]	2.73 ± 0.057	2.91 ± 0.052	2.88 ± 0.067	3.03 ± 0.053
IHSGVLSSIESDLKKRE [YMR153W/NUP53]	3.07 ± 0.084	3.17 ± 0.073	3.1 ± 0.066	3.09 ± 0.074
IIAVKGSGSRLNRLPAA [RPL23A]	1.42 ± 0.051	1.17 ± 0.049	1.23 ± 0.099	1.42 ± 0.049
IIDHIPGHSLLLSIKLP [SNF5]	1.96 ± 0.066	1.61 ± 0.045	1.53 ± 0.11	2.23 ± 0.04
IIEQLSIAAERYDYSDE [YCG1]	2.51 ± 0.052	2.78 ± 0.063	2.22 ± 0.06	2.59 ± 0.032
IIFNYVPGPGTKLIQYE [CSL4]		2.99 ± 0.1		2.84 ± 0.098
IIGTFSDSYKVSLQNFS [RRP40]	2.11 ± 0.099	1.79 ± 0.079	2.24 ± 0.11	1.96 ± 0.054
IIKGTDVYSPEKGSWEQ [BRR2]	3.1 ± 0.06	3.35 ± 0.075	3.24 ± 0.11	3.25 ± 0.13
IIKMTIPYAAKLLFQEL [RET1]	2.18 ± 0.1	2.08 ± 0.12	1.75 ± 0.22	1.9 ± 0.073
IIKYPVAFDNINTHIET [SNF2]	2.45 ± 0.14	2.71 ± 0.11	2 ± 0.16	1.85 ± 0.067
IILKTRQINKLIDSLPG [SRB7]	2.31 ± 0.071	2.11 ± 0.047	2.62 ± 0.067	2.51 ± 0.058
IIPTTLEEQQQLEDESS [YML103C/NUP188]	1.88 ± 0.081	1.66 ± 0.08	2.67 ± 0.081	2.86 ± 0.099
IISSNENALIELKNELA [YIL149C/MLP2]	2.53 ± 0.15	2.93 ± 0.077	2.71 ± 0.14	3.07 ± 0.12
IKDEIDDPFTKINTRGA [SWI1]	1.96 ± 0.22	1.58 ± 0.1	1.53 ± 0.13	2.12 ± 0.16
IKKKKKKSKNGTISKTG [SRP14]	3.16 ± 0.19	3.17 ± 0.15	3.11 ± 0.1	3.54 ± 0.11
IKLDRWLMEGSYQKAWD [RPN12]	2.72 ± 0.11	2.8 ± 0.098	2.9 ± 0.11	2.68 ± 0.11

Sequence	protein stability index (doa10∆)	protein stability index (pdr5∆)	protein stability index (san1∆)	protein stability index (ubr1∆)
IKNLTVQLSPSNPQHII [RGR1]	2.6 ± 0.052	2.74 ± 0.05	2.42 ± 0.062	2.67 ± 0.049
IKSKADAWVSAAHYNRE [PRP8]	1.79 ± 0.078	1.48 ± 0.065	2.6 ± 0.06	1.7 ± 0.11
IKSQYYSRISKLKQLLD [YIL149C/MLP2]	1.2 ± 0.095	1.87 ± 0.11	1.64 ± 0.12	1.45 ± 0.068
IKTFLVDLTSSNFADSA [YDL116W/NUP84]	2.3 ± 0.089	2.82 ± 0.094	2.78 ± 0.1	2.76 ± 0.069
IKTQQHILPEVPPVENF [TAF14]	2.21 ± 0.1	2.42 ± 0.082	2.89 ± 0.086	2.95 ± 0.073
ILGMLSLADNEIALKGL [YCS4]	2.42 ± 0.053	2.08 ± 0.068	2.11 ± 0.089	2.25 ± 0.056
ILHVRAQYCYKNGLYQE [SRP72]	2.86 ± 0.073	2.94 ± 0.095	3.1 ± 0.068	3.25 ± 0.057
ILKEEFPKIDSLAQNDC [RPN5]	3.19 ± 0.15	3.24 ± 0.091	3.22 ± 0.056	3.38 ± 0.065
ILMQQQMMARMAQTATQ [SRP54]	2.34 ± 0.14	2.22 ± 0.1	2.08 ± 0.12	2.63 ± 0.1
ILQILNLMILNTKVPVD [YML103C/NUP188]	1.34 ± 0.1	1.51 ± 0.07	1.12 ± 0.29	1.34 ± 0.1
ILSDSPLELSAPIGKHY [DIS3]	1.71 ± 0.13			2.39 ± 0.17
ILSVKLAELINMTTIAD [SRB6]	2.6 ± 0.072	2.46 ± 0.076	2.75 ± 0.069	2.85 ± 0.068
ILTPESQLKKSKAQQKT [RPL7A]	3.02 ± 0.078	3.02 ± 0.12	2.98 ± 0.12	2.98 ± 0.056
ILYGLVDKGAIMKNKDF [YJL039C/NUP192]		2.32 ± 0.2	3.06 ± 0.21	1.58 ± 0.15
IMRILKSNGLAPEIPED [RPS13]	2.14 ± 0.09	3.09 ± 0.15	1.9 ± 0.22	2.91 ± 0.057
INAEEIVDFTLPPPPPP [PRP8]	2.94 ± 0.07	3.06 ± 0.053	3.01 ± 0.047	3.04 ± 0.045
INGWELTKAQKYLEQVL [RPL17A]	3.34 ± 0.06	3.44 ± 0.053	3.4 ± 0.036	3.36 ± 0.046
INHTILGKLQDVFNLLP [RPN8]	3.16 ± 0.066	3.17 ± 0.081	2.84 ± 0.048	2.96 ± 0.046
INKQRVPLSDNAIIEAN [RPL7A]	2.6 ± 0.058	2.61 ± 0.064	2.51 ± 0.066	2.54 ± 0.053
INLRKVAEKMNGCSGAD [RPT6]	2.45 ± 0.15	2.25 ± 0.28	2.38 ± 0.13	3.07 ± 0.29
INMADRSLGLQQVVCIF [POP6]	1.39 ± 0.093	1.3 ± 0.11	1.4 ± 0.15	1.06 ± 0.11
INPESREIVMPAHTKYM [ITC1]	1.63 ± 0.17	1.5 ± 0.2	1.69 ± 0.14	2.18 ± 0.11
INTHIETLAYNSLKETL [SNF2]	2.48 ± 0.054	2.76 ± 0.063	2.5 ± 0.047	2.61 ± 0.042
IPDHLAELIPELYSFQQ [SNF12]	3.02 ± 0.077	2.94 ± 0.07	2.95 ± 0.05	2.93 ± 0.059
IPQSQQVPQVRSMSGQP [SNF5]	2.52 ± 0.05	2.55 ± 0.047	2.5 ± 0.047	2.7 ± 0.039
IPRTFRTPVPSTLMPGG [SNF5]	2.68 ± 0.066	2.18 ± 0.05	2.44 ± 0.045	2.65 ± 0.048

From the supplement of paper PMC9732359
